Numbering of substitutions follows the chain as printed.

B1: IL6R-BP089/IL6R-L (antibody, human IgG1, kappa)
heavy: QVQLQESGPGLVKPSETLSLTCAVSGHSISHDHAWSWVRQPPGEGLEWIGFISYSGITNYNPSLQGRVTISRDNSKNTLYLQMNSLRAEDTAVYYCARSLARTTAMDYWGEGTLVTVSSASTKGPSVFPLAPSSKSTSGGTAALGCLVKDYFPEPVTVSWNSGALTSGVHTFPAVLQSSGLYSLSSVVTVPSSSLGTQTYICNVNHKPSNTKVDKKVEPKSCDKTHTCPPCPAPEYLGGDSVFLFPPKPKDTLMISRTPEVTCVVVDVSHEDPEVKFNWYVDGVEVHNAKTKPREEQYNSTYRVVSVLTVLHQDWLNGKEYKCKVSNAALPKPIEKTISKAKGQPREPQVYTLPPSRDELTKNQVSLTCLVKGFYPSDIAVEWESNGQPENNYKTTPPVLDSDGSFFLYSKLTVDKSRWQQGNVFSCSVMHEALHNHYTQESLSLSP
light: not shown
notes: EU numbering; alterations on IL6R-B3; copies: 2 + 2
B2: IL6R-BP176/IL6R-L (antibody, human IgG1, kappa)
heavy: B1 heavy with E235D, Y236L, A328D
light: not shown
notes: as for B1
B3: IL6R-BP129/IL6R-L (antibody, human IgG1, kappa)
heavy: B1 heavy with E235D, Y236L, Y298D, A328K
light: not shown
notes: as for B1
B4: IL6R-BP423/IL6R-L (antibody, human IgG1, kappa)
heavy: B1 heavy with E235D, Y236L, G239D, S269A, H270E, P273G, A328K, K332R
light: not shown
notes: alterations counted against IL6R-B3; copies: 2 + 2
B5: IL6R-BP451/IL6R-L (antibody, human IgG1, kappa)
heavy: B1 heavy with E235D, Y236L, G239D, S269A, H270E, P273G, A328K, K332R, P398G
light: not shown
notes: P396G introduced into IL6R-BP423; copies: 2 + 2
B6: IL6R-BP246/IL6R-L (antibody, human IgG1, kappa)
heavy: B1 heavy with E235D, Y236L, G239D, S269Q, H270D, P273G, Y298D, K332R
light: not shown
notes: copies: 2 + 2
B7: IL6R-BP249/IL6R-L (antibody, human IgG1, kappa)
heavy: B1 heavy with E235D, G239D, H270D, P273G, Y298D, A328K, K332R
light: not shown
notes: copies: 2 + 2
B8: IL6R-BP233/IL6R-L (antibody, human IgG1, kappa)
heavy: B1 heavy with G239D, P273G, A328K
light: not shown
notes: copies: 2 + 2
B9: IL6R-BP220/IL6R-L (antibody, human IgG1, kappa)
heavy: B1 heavy with E235D, Y236L, G239D, H270D, P273G, Y298D, A328K
light: not shown
notes: copies: 2 + 2

The target in one assay is T1, human FcγRIIa type H extracellular domain with C-terminal His tag (human, UniProt P12318 34-217).
T1 construct: extracellular domain; also called FcγRIIaH; FcgRIIaH
T1 sequence (looked up): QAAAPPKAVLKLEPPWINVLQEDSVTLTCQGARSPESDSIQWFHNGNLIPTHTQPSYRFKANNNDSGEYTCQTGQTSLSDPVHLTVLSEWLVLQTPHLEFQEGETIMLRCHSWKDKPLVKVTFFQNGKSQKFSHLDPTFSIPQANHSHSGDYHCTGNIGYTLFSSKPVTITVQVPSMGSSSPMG
The experiment in a line: SPR (Biacore). A general note: Surface plasmon resonance follows binding to a sensor surface in real time, without labels.
As a reminder, the Kd is the concentration at which binding is half-saturated. Read a high Kd as lower affinity. B1: the Kd was 20000 nM.
B2 showed a Kd of 30000 nM.
On to B3, for which the dissociation constant Kd was 40000 nM.

For the next assay, the target named is T2, human FcγRIIa type H (H131) extracellular domain with C-terminal His tag (human, UniProt P12318 34-217).
T2 construct: extracellular domain; also called FcγRIIaH; not shown: His tag at the C terminus
T2 sequence (looked up): T1 sequence (looked up)
As to the kind of experiment: SPR (Biacore), antibody captured, FcγR analyte.
As to B4, the Kd amounted to 2000 nM.
The molecule B5 showed a Kd of 2000 nM.

In a further assay the target is T3, human FcγRIa extracellular domain with C-terminal His tag (human, UniProt P12314 16-292).
T3 construct: not shown: His tag at the C terminus
T3 sequence (P12314 16-292): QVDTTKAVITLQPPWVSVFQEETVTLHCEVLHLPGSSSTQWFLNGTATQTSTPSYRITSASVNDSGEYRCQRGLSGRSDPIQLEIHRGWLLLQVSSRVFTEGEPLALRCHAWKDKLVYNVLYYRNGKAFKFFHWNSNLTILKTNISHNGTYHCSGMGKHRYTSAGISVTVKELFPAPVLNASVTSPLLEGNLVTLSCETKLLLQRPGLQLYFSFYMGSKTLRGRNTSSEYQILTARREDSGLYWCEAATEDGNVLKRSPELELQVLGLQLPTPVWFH
The experiment in a line: SPR (Biacore), antibody captured, FcγR analyte.
Molecule B6 gave a Kd of 8 nM.
Turning to B7, binding was put at a Kd of 7 nM.
On the same count and under the same terms, in the case of B8 it was 70 nM; in that of B9, 20 nM.

The values above are taken from patent US20220389118A1 (Chugai, published 2022).
